These results are taken from paper PMC7870875 (Scientific Reports, 2021).

Assay [1] deals with T1, full-length Spike protein of SARS-CoV-2 (SARS-CoV-2 (Wuhan-Hu-1 reference; …, UniProt P0DTC2).
T1 construct: source: bought: SINOBiological; produced in a baculovirus expression system
The experiment in a line: far-Western, overlay or dot blot. The settings on record: one partner purified.

Assay [2] deals with T2, Spike-GFP (SARS-CoV-2 (Wuhan-Hu-1 reference; …, UniProt P0DTC2).
T2 construct: also called S-GFP
As to the kind of experiment: immunostaining of cells or tissue. The settings on record: partners not purified.

B1: intimin-Nanobody fusion of clone W23 (bacterial display) (VHH)
VHH: QVQLVESGGGLVQPGESLRLSCAASGNIFGIAAVHWFRKAPGKEREFTAGFGSDGSTNYANSVKGRFTISRDNAKNTTYLQMNSLKPEDTAVYYCHALIKNELGFLDYWGPGTQVTVSS
notes: also called clone W23 total protein extract
As to B1, the binding result in assay [1] and in assay [2] was “binds” in each case.
